Measured values published in patent publication US20200199204A1 (UNITED STATES OF AMERICA AS REPRESENTED BY THE SECRETARY …, published 2020).

Tests used:
Experiment in all cases: cell-based or functional assay
[1] = target: HIV-1 Env of Q23.17 (HIV-1)
[2] = target: HIV-1 Env of RHPA.7 (HIV-1)
[3] = target: HIV-1 Env of CM244.ec1 (HIV-1)
[4] = target: HIV-1 Env of 3016.V5.c36 (HIV-1)
[5] = target: HIV-1 Env of DU156.12 (HIV-1)
[6] = target: HIV-1 Env of SC422.8 (HIV-1)
[7] = target: HIV-1 Env of TRJO.58 (HIV-1)
[8] = target: HIV-1 Env of REJO.67 (HIV-1)
[9] = target: HIV-1 Env of 0260.v5.c36 (HIV-1)
[10] = target: HIV-1 Env of AC10.29 (HIV-1)
[11] = target: HIV-1 Env of TRO.11 (HIV-1)
[12] = target: HIV-1 Env of 96ZM651.02 (HIV-1)
[13] = target: HIV-1 Env of CAP244.D3 (HIV-1)
[14] = target: HIV-1 Env of ZM135.10a (HIV-1)
[15] = target: HIV-1 Env of ZM109.4 (HIV-1)
[16] = target: HIV-1 Env of ZM53.12 (HIV-1)
[17] = target: HIV-1 Env of UG037.8 (HIV-1)
[18] = target: HIV-1 Env of WITO.33 (HIV-1)
[19] = target: HIV-1 Env of KER2018.11 (HIV-1)
[20] = target: HIV-1 Env of 6405.v4.c34 (HIV-1)
[21] = target: HIV-1 Env of CAP45.G3 (HIV-1)
[22] = target: HIV-1 Env of Q769.d22 (HIV-1)
[23] = target: HIV-1 Env of Q259.d2.17 (HIV-1)
[24] = target: HIV-1 Env of 6535.3 (HIV-1)
[25] = target: HIV-1 Env of 191821.E6.1 (HIV-1)
[26] = target: HIV-1 Env of ZM197.7 (HIV-1)
[27] = target: HIV-1 Env of KER2008.12 (HIV-1)
[28] = target: HIV-1 Env of MB539.2B7 (HIV-1)
[29] = target: HIV-1 Env of PVO.04 (HIV-1)
[30] = target: HIV-1 Env of CAP210.E8 (HIV-1)
[31] = target: HIV-1 Env of Q461.e2 (HIV-1)
[32] = target: HIV-1 Env of ZM233.6 (HIV-1)
[33] = target: HIV-1 Env of CAP256.PI (HIV-1)
[34] = target: HIV-1 Env of CAAN.A2 (HIV-1)
[35] = target: HIV-1 Env of RW020.2 (HIV-1)
[36] = target: HIV-1 Env of C1080.c3 (HIV-1)
[37] = target: HIV-1 Env of MB201 (HIV-1)
[38] = target: HIV-1 Env of CAP256.SU (HIV-1)
[39] = target: HIV-1 Env of Q842.d12 (HIV-1)
[40] = target: HIV-1 Env of ZM214.15 (HIV-1)
[41] = target: HIV-1 Env of DU422.01 (HIV-1)
[42] = target: HIV-1 Env of THRO.18 (HIV-1)
[43] = target: HIV-1 Env of QH0692.42 (HIV-1)
[44] = target: HIV-1 Env of Q168.a2 (HIV-1)
[45] = target: HIV-1 Env of ZM249.1 (HIV-1)
[46] = target: HIV-1 Env of DU172.17 (HIV-1)
[47] = target: HIV-1 Env of BG505.w6m (HIV-1)

B1: CAP256-VRC26.10 (antibody, V domains shown)
VH: QAILVESGGGVVQPGRSLRLSCAASQFTFSGHGLHWVRQAPGKGLEWVASISFAGTKMDYADSVKGRFAISRDNSKNTLYLQMNSLRVEDTALYYCAKDMREYECEYWTSDYYDFGRPQPCIDRRGVVGIFDMWGQGTMVTVST
VL: QSVLTQPPSVSAAPGQKVTISCSGSSSNIGDNYVSWYQHLPGTAPKLLIYENTRRPSGIPDRFSGSKSGTSATLAITGLQTGDEADYYCGTWDVRPNRGAVFGTGTKVTVLG
[1]
  neutralization IC50: 2.59 µg/mL
[2]
  neutralization IC50: > 50 µg/mL
[3]
  neutralization IC50: 0.914 µg/mL
[4]
  neutralization IC50: 0.017 µg/mL
[5]
  neutralization IC50: > 50 µg/mL
[6]
  neutralization IC50: > 50 µg/mL
[7]
  neutralization IC50: > 50 µg/mL
[8]
  neutralization IC50: > 50 µg/mL
[9]
  neutralization IC50: > 50 µg/mL
[10]
  neutralization IC50: > 50 µg/mL
[11]
  neutralization IC50: > 50 µg/mL
[12]
  neutralization IC50: > 50 µg/mL
[13]
  neutralization IC50: > 50 µg/mL
[14]
  neutralization IC50: > 50 µg/mL
[15]
  neutralization IC50: > 50 µg/mL
[16]
  neutralization IC50: 0.072 µg/mL
[17]
  neutralization IC50: > 50 µg/mL
[18]
  neutralization IC50: > 50 µg/mL
[19]
  neutralization IC50: 0.335 µg/mL
[20]
  neutralization IC50: > 50 µg/mL
[21]
  neutralization IC50: > 50 µg/mL
[22]
  neutralization IC50: > 50 µg/mL
[23]
  neutralization IC50: 24.6 µg/mL
[24]
  neutralization IC50: > 50 µg/mL
[25]
  neutralization IC50: > 50 µg/mL
[26]
  neutralization IC50: 0.346 µg/mL
[27]
  neutralization IC50: > 50 µg/mL
[28]
  neutralization IC50: > 50 µg/mL
[29]
  neutralization IC50: 2.48 µg/mL
[30]
  neutralization IC50: 0.1 µg/mL
[31]
  neutralization IC50: > 50 µg/mL
[32]
  neutralization IC50: 0.228 µg/mL
[33]
  neutralization IC50: > 50 µg/mL
[34]
  neutralization IC50: > 50 µg/mL
[35]
  neutralization IC50: > 50 µg/mL
[36]
  neutralization IC50: > 50 µg/mL
[37]
  neutralization IC50: > 50 µg/mL
[38]
  neutralization IC50: 0.031 µg/mL
[39]
  neutralization IC50: > 50 µg/mL
[40]
  neutralization IC50: > 50 µg/mL
[41]
  neutralization IC50: 8.2 µg/mL
[42]
  neutralization IC50: > 50 µg/mL
[43]
  neutralization IC50: > 50 µg/mL
[44]
  neutralization IC50: > 50 µg/mL
[45]
  neutralization IC50: > 50 µg/mL
[46]
  neutralization IC50: > 50 µg/mL
[47]
  neutralization IC50: > 50 µg/mL
